{
  "source": "paper PMC9045149",
  "key": {"[1]": {"molecular_target": "6xHis-tagged cell-wall binding domain of endolysin CD16/50L, wild type (Clostridioides difficile phage ϕHN50 (identical in ϕHN16-1))", "assay": "SEC; Superdex 75 10/300 GL, 50 mM Tris-HCl (pH 8.0), 500 mM NaCl, 0.5 mL/min; approximately 2.5 mg/mL of each purified 6xHis-CBD variant injected separately; size from calibration with standard proteins"}, "PG-PS complex": {"molecular_target": "PG-PS complex", "assay": "co-precipitation (pull-down) with PG-PS complex, SDS-PAGE band quantification", "conditions": "parent: est. 1.0; read off a plot"}, "[2]": {"molecular_target": "CD16/50L CBD wild type fused to SmBit and to LgBit (CBD-SmBit/LgBit, plasmid pWP004) (Clostridioides difficile phage ϕHN50 (identical in ϕHN16-1))", "assay": "split reporter (BiFC, NanoBiT); BitLuc^opt split luciferase in live C. difficile R20291; CBD-SmBit and CBD-LgBit co-expressed, induced with 4% (wt/vol) xylose for 2 h; Nano-Glo (furimazine) substrate, luminescence read"}, "[3]": {"molecular_target": "CD16/50L CBD C234A fused to SmBit and to LgBit", "assay": "split complementary luciferase assay (SmBit/LgBit) in C. difficile cells", "conditions": "4% (wt/vol) xylose for 2 h; furimazine substrate incubated for 5 min; parent: est. 6.0; read off a plot"}, "[4]": {"molecular_target": "CD16/50L CBD E239A fused to SmBit and to LgBit", "assay": "split complementary luciferase assay (SmBit/LgBit) in C. difficile cells", "conditions": "4% (wt/vol) xylose for 2 h; furimazine substrate incubated for 5 min; parent: est. 6.0; read off a plot"}, "[5]": {"molecular_target": "CD16/50L CBD F248A fused to SmBit and to LgBit", "assay": "split complementary luciferase assay (SmBit/LgBit) in C. difficile cells", "conditions": "4% (wt/vol) xylose for 2 h; furimazine substrate incubated for 5 min; parent: est. 6.0; read off a plot"}, "[6]": {"molecular_target": "CD16/50L CBD M260A fused to SmBit and to LgBit", "assay": "split complementary luciferase assay (SmBit/LgBit) in C. difficile cells", "conditions": "4% (wt/vol) xylose for 2 h; furimazine substrate incubated for 5 min; parent: est. 6.0; read off a plot"}, "[7]": {"molecular_target": "CD16/50L CBD Q250A fused to SmBit and to LgBit", "assay": "split complementary luciferase assay (SmBit/LgBit) in C. difficile cells", "conditions": "4% (wt/vol) xylose for 2 h; furimazine substrate incubated for 5 min; parent: est. 6.0; read off a plot"}, "[8]": {"molecular_target": "CD16/50L CBD W257A fused to SmBit and to LgBit", "assay": "split complementary luciferase assay (SmBit/LgBit) in C. difficile cells", "conditions": "4% (wt/vol) xylose for 2 h; furimazine substrate incubated for 5 min; parent: est. 6.0; read off a plot"}, "[9]": {"molecular_target": "CD16/50L CBD Y202A fused to SmBit and to LgBit", "assay": "split complementary luciferase assay (SmBit/LgBit) in C. difficile cells", "conditions": "4% (wt/vol) xylose for 2 h; furimazine substrate incubated for 5 min; parent: est. 6.0; read off a plot"}, "[10]": {"molecular_target": "CD16/50L CBD (Y202A, W257A) fused to SmBit and to LgBit", "assay": "split complementary luciferase assay (SmBit/LgBit) in C. difficile cells", "conditions": "4% (wt/vol) xylose for 2 h; furimazine substrate incubated for 5 min; parent: est. 6.0; read off a plot"}},
  "data": [
    {"substance": "6xHis-tagged cell-wall binding domain of endolysin CD16/50L, wild type (domain or fragment)", "values": [
      {"measurement": "stoichiometry N", "setting": "[1]", "value": 2}
    ]},
    {"substance": "6xHis-tagged cell-wall binding domain of endolysin CD16/50L, wild type W257A", "values": [
      {"measurement": "ratio to parent", "setting": "PG-PS complex", "value": 0.35}
    ]},
    {"substance": "6xHis-tagged cell-wall binding domain of endolysin CD16/50L, wild type Y202A; W257A", "values": [
      {"measurement": "ratio to parent", "setting": "PG-PS complex", "value": 0.47}
    ]},
    {"substance": "CD16/50L CBD wild type fused to SmBit and to LgBit (CBD-SmBit/LgBit, plasmid pWP004) (domain or fragment)", "values": [
      {"measurement": "fold increase of the luciferase signal over the single-fragment controls", "setting": "[2]", "value": "< 300", "unit": "fold"}
    ]},
    {"substance": "CD16/50L CBD wild type fused to SmBit and to LgBit (CBD-SmBit/LgBit, plasmid pWP004) C234A", "values": [
      {"measurement": "response", "setting": "[3]", "value": 6, "unit": "log RLU"}
    ]},
    {"substance": "CD16/50L CBD wild type fused to SmBit and to LgBit (CBD-SmBit/LgBit, plasmid pWP004) E239A", "values": [
      {"measurement": "response", "setting": "[4]", "value": 6.1, "unit": "log RLU"}
    ]},
    {"substance": "CD16/50L CBD wild type fused to SmBit and to LgBit (CBD-SmBit/LgBit, plasmid pWP004) F248A", "values": [
      {"measurement": "response", "setting": "[5]", "value": 6, "unit": "log RLU"}
    ]},
    {"substance": "CD16/50L CBD wild type fused to SmBit and to LgBit (CBD-SmBit/LgBit, plasmid pWP004) M260A", "values": [
      {"measurement": "response", "setting": "[6]", "value": 6, "unit": "log RLU"}
    ]},
    {"substance": "CD16/50L CBD wild type fused to SmBit and to LgBit (CBD-SmBit/LgBit, plasmid pWP004) Q250A", "values": [
      {"measurement": "response", "setting": "[7]", "value": 6, "unit": "log RLU"}
    ]},
    {"substance": "CD16/50L CBD wild type fused to SmBit and to LgBit (CBD-SmBit/LgBit, plasmid pWP004) W257A", "values": [
      {"measurement": "response", "setting": "[8]", "value": 4.9, "unit": "log RLU"}
    ]},
    {"substance": "CD16/50L CBD wild type fused to SmBit and to LgBit (CBD-SmBit/LgBit, plasmid pWP004) Y202A", "values": [
      {"measurement": "response", "setting": "[9]", "value": 5.9, "unit": "log RLU"}
    ]},
    {"substance": "CD16/50L CBD wild type fused to SmBit and to LgBit (CBD-SmBit/LgBit, plasmid pWP004) Y202A; W257A", "values": [
      {"measurement": "response", "setting": "[10]", "value": 3.5, "unit": "log RLU"}
    ]}
  ]
}
